Each block holds one binder with its values, some of them ahead of it.
Columns and labels:
[1] = target: T1, human IL-4 receptor alpha chain on cells (TF-1 cells, primary human T-cell blasts and B cells) (human, UniProt P24394 26-825); experiment: cell-based or functional assay
T1 sequence (looked up): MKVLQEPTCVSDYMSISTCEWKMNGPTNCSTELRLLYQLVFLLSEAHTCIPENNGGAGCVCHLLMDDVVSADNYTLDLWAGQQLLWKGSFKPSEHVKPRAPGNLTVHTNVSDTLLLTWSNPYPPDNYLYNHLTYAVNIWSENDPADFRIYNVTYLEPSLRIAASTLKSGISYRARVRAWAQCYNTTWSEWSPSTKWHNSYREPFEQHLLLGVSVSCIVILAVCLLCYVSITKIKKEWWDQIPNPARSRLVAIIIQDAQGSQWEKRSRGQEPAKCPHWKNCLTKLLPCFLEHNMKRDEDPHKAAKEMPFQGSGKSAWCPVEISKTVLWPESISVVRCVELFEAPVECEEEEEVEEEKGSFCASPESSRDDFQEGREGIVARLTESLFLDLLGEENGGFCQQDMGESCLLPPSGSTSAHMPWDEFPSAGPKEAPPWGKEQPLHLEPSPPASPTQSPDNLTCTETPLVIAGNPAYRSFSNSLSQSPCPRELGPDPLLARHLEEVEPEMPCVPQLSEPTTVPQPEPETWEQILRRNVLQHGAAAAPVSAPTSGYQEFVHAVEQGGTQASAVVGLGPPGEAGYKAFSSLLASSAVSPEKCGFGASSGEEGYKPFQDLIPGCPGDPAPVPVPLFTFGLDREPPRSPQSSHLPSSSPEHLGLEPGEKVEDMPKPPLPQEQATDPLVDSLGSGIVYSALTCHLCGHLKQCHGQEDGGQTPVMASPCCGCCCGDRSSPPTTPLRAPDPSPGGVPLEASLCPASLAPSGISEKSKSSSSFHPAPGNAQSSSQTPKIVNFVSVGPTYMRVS

[2] = target: T1, human IL-4 receptor alpha chain on …; experiment: cell-based or functional assay; remark: listed apart in the source
[3] = target: T2, IL-4 receptor (immobilized on BIAcore CM5 chip) (human, UniProt P24394 26-232, limits assumed); experiment: BIAcore SPR, IL-4 receptor amine-coupled to CM5 chip, mutein injected, direct binding kinetics
T2 construct: also called IL-4Rα; IL-4 receptor alpha chain
T2 sequence (looked up): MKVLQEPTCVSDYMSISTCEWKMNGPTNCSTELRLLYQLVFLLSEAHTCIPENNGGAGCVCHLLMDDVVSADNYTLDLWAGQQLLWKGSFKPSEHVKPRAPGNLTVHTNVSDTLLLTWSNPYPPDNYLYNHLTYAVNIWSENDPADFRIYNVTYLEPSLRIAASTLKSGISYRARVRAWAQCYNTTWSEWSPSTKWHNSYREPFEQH
Description: IL-4 receptor was immobilized on a BIAcore CM5 research grade sensor chip through amine coupling. The sensor surface was activated with an EDC/NHS pulse. IL-4 receptor was dissolved in 10 mM acetate buffer (pH 5.0) and injected into flowcell 2 followed by a pulse of 1.0M ethanolamine-HCL to deactivate the surface. The immobilization level for the receptor was ˜300 RU. Flowcell 1 was also activated without a ligand to function as a blank. The Biacore Wizard was used to perform kinetics analysis. Candidate IL4RE antagonists were diluted in HBS-EP (running buffer) and injected at 30 ul/minute flow rate for 3 minutes and a dissociation time of 15 minutes. Regeneration of the chip was performed by two 30 second injections of 10 mM Glycine pH2.5 (flow 100 ul/min) to baseline prior to next injection in the concentration series. Dissociation constant (KD) values were calculated for each candidate based on direct binding kinetics (Table 5).

[4] = target: T1, human IL-4 receptor alpha chain on …; experiment: cell-based or functional assay; remark: listed apart in the source
[5] = target: T1, human IL-4 receptor alpha chain on …; experiment: cell-based or functional assay; remark: listed apart in the source
[6] = target: T1, human IL-4 receptor alpha chain on …; experiment: cell-based or functional assay; remark: listed apart in the source

B1: IL-4RA (IL-4 double mutein R121D/Y124D, unPEGylated) (ligand)
chain: MHKCDITLQEIIKTLNSLTEQKTLCTELTVTDIFAASKNTTEKETFCRAATVLRQFYSHHEKDTRCLGATAQQFHRHKQLIRFLKRLDRNLWGLAGLNSCPVKEANQSTLENFLERLKTIMDEKDSKCSS
notes: also called BAY 16-9996; IL-4DM
TF-1/IL-4 IC50 [1]: 0.56 nM
TF-1/IL-13 IC50 [1]: 1.17 nM
B-cell IC50, nM (proliferation to IL-4) [2]: 0.86 nM
T-cell blast IC50, nM (proliferation to IL-4) [2]: 3.22 nM
Kd [3]: 0.11 nM
Fold increase in IC50 (relative to IL-4DM), primary B cells [4]: 1 fold
IC50 (nM), primary B cell proliferation to anti-CD40 and IL-4 [4]: 1.71 nM
Fold increase in IC50 (relative to IL-4DM), primary T cell blasts [5]: 1 fold
IC50 (nM), primary T cell blast proliferation to IL-4 [5]: 1.07 nM

B2: IL4-RE-A104C, PEGylated with linear 22 kD mPEG-maleimide (ligand)
chain: MHKCDITLQEIIKTLNSLTEQKTLCTELTVTDIFAASKNTTEKETFCRAATVLRQFYSHHEKDTRCLGATAQQFHRHKQLIRFLKRLDRNLWGLAGLNSCPVKECNQSTLENFLERLKTIMDEKDSKCSS
modifications: linear 22 kD methoxy-polyethylene glycol-maleimide on Cys 104 (numbered according to wild type IL-4)
notes: also called PEG-IL4RE
TF-1/IL-4 IC50 [1]: 0.55 nM
TF-1/IL-13 IC50 [1]: 1.34 nM
B-cell IC50, nM (proliferation to IL-4) [2]: 3.29 nM
T-cell blast IC50, nM (proliferation to IL-4) [2]: 4.67 nM
Kd [3]: 0.56 nM

B3: IL4-RE-K37C, PEGylated with linear 22 kD mPEG-maleimide (ligand)
chain: MHKCDITLQEIIKTLNSLTEQKTLCTELTVTDIFAASCNTTEKETFCRAATVLRQFYSHHEKDTRCLGATAQQFHRHKQLIRFLKRLDRNLWGLAGLNSCPVKEANQSTLENFLERLKTIMDEKDSKCSS
modifications: linear 22 kD methoxy-polyethylene glycol-maleimide on Cys 37 (numbered according to wild type IL-4)
notes: also called PEG-IL4RE
TF-1/IL-4 IC50 [1]: 0.82 nM
TF-1/IL-13 IC50 [1]: 1.22 nM
B-cell IC50, nM (proliferation to IL-4) [2]: 3.73 nM
T-cell blast IC50, nM (proliferation to IL-4) [2]: 13.9 nM
Kd [3]: 0.74 nM

B5: IL4-RE-N105C, PEGylated with linear 22 kD mPEG-maleimide (ligand)
chain: MHKCDITLQEIIKTLNSLTEQKTLCTELTVTDIFAASKNTTEKETFCRAATVLRQFYSHHEKDTRCLGATAQQFHRHKQLIRFLKRLDRNLWGLAGLNSCPVKEACQSTLENFLERLKTIMDEKDSKCSS
modifications: linear 22 kD methoxy-polyethylene glycol-maleimide on Cys 105 (numbered according to wild type IL-4)
notes: also called PEG-IL4RE
TF-1/IL-4 IC50 [1]: 2.26 nM
TF-1/IL-13 IC50 [1]: 2.11 nM
Kd [3]: 0.59 nM

B7: IL4-RE-S36C, PEGylated with linear 22 kD mPEG-maleimide (ligand)
chain: MHKCDITLQEIIKTLNSLTEQKTLCTELTVTDIFAACKNTTEKETFCRAATVLRQFYSHHEKDTRCLGATAQQFHRHKQLIRFLKRLDRNLWGLAGLNSCPVKEANQSTLENFLERLKTIMDEKDSKCSS
modifications: linear 22 kD methoxy-polyethylene glycol-maleimide on Cys 36 (numbered according to wild type IL-4)
notes: also called PEG-IL4RE
TF-1/IL-4 IC50 [1]: 1.2 nM
TF-1/IL-13 IC50 [1]: 1.21 nM
Kd [3]: 1.15 nM

B8: IL4-RE-T28C, PEGylated with linear 22 kD mPEG-maleimide (ligand)
chain: MHKCDITLQEIIKTLNSLTEQKTLCTELCVTDIFAASKNTTEKETFCRAATVLRQFYSHHEKDTRCLGATAQQFHRHKQLIRFLKRLDRNLWGLAGLNSCPVKEANQSTLENFLERLKTIMDEKDSKCSS
modifications: linear 22 kD methoxy-polyethylene glycol-maleimide on Cys 28 (numbered according to wild type IL-4)
notes: also called PEG-IL4RE
TF-1/IL-4 IC50 [1]: 2.35 nM
TF-1/IL-13 IC50 [1]: 2.87 nM
Kd [3]: 0.89 nM

B10: IL-4TM-A104C (R121D/Y124D/A104C) PEGylated with 40 kDa branched maleimide-PEG (ligand)
chain: MHKCDITLQEIIKTLNSLTEQKTLCTELTVTDIFAASKNTTEKETFCRAATVLRQFYSHHEKDTRCLGATAQQFHRHKQLIRFLKRLDRNLWGLAGLNSCPVKECNQSTLENFLERLKTIMDEKDSKCSS
modifications: 40 kDa branched maleimide-PEG on Cys 104 (numbered according to wild type IL-4)
loss of activity in the TF-1 activity assay against PEGylated 38C [6]: ~2 fold
Fold increase in IC50 (relative to IL-4DM), primary B cells [4]: 11.3 fold
IC50 (nM), primary B cell proliferation to anti-CD40 and IL-4 [4]: 19.4 nM
Fold increase in IC50 (relative to IL-4DM), primary T cell blasts [5]: 7.4 fold
IC50 (nM), primary T cell blast proliferation to IL-4 [5]: 8 nM

B11: IL-4TM-N38C (R121D/Y124D/N38C) PEGylated with 40 kDa branched maleimide-PEG (ligand)
chain: MHKCDITLQEIIKTLNSLTEQKTLCTELTVTDIFAASKCTTEKETFCRAATVLRQFYSHHEKDTRCLGATAQQFHRHKQLIRFLKRLDRNLWGLAGLNSCPVKEANQSTLENFLERLKTIMDEKDSKCSS
modifications: 40 kDa branched maleimide-PEG on Cys 38 (numbered according to wild type IL-4)
Fold increase in IC50 (relative to IL-4DM), primary B cells [4]: 4 fold
IC50 (nM), primary B cell proliferation to anti-CD40 and IL-4 [4]: 6.85 nM
Fold increase in IC50 (relative to IL-4DM), primary T cell blasts [5]: 2.3 fold
IC50 (nM), primary T cell blast proliferation to IL-4 [5]: 2.43 nM

B12: PEGylated T13D-N38C with 40 kDa branched PEG (IL4-RE-T13D-N38C) (ligand)
chain: MHKCDITLQEIIKDLNSLTEQKTLCTELTVTDIFAASKCTTEKETFCRAATVLRQFYSHHEKDTRCLGATAQQFHRHKQLIRFLKRLDRNLWGLAGLNSCPVKEANQSTLENFLERLKTIMDEKDSKCSS
modifications: 40 kDa branched maleimide-PEG on Cys 38 (numbered according to wild type IL-4)
Fold increase in IC50 (relative to IL-4DM), primary B cells [4]: 1.4 fold
IC50 (nM), primary B cell proliferation to anti-CD40 and IL-4 [4]: 2.43 nM
Fold increase in IC50 (relative to IL-4DM), primary T cell blasts [5]: 3.1 fold
IC50 (nM), primary T cell blast proliferation to IL-4 [5]: 3.28 nM

The next lines start with the values.

TF-1/IL-4 IC50 [1]: 0.7 nM
TF-1/IL-13 IC50 [1]: 1.24 nM
B-cell IC50, nM (proliferation to IL-4) [2]: 3.33 nM
T-cell blast IC50, nM (proliferation to IL-4) [2]: 9.94 nM
Kd [3]: 0.77 nM
B4: IL4-RE-N38C, PEGylated with linear 22 kD mPEG-maleimide (ligand)
chain: MHKCDITLQEIIKTLNSLTEQKTLCTELTVTDIFAASKCTTEKETFCRAATVLRQFYSHHEKDTRCLGATAQQFHRHKQLIRFLKRLDRNLWGLAGLNSCPVKEANQSTLENFLERLKTIMDEKDSKCSS
modifications: linear 22 kD methoxy-polyethylene glycol-maleimide on Cys 38 (numbered according to wild type IL-4)
notes: also called PEG-IL4RE

TF-1/IL-4 IC50 [1]: 2.44 nM
TF-1/IL-13 IC50 [1]: 1.95 nM
Kd [3]: 0.52 nM
B6: IL4-RE-Q106C, PEGylated with linear 22 kD mPEG-maleimide (ligand)
chain: MHKCDITLQEIIKTLNSLTEQKTLCTELTVTDIFAASKNTTEKETFCRAATVLRQFYSHHEKDTRCLGATAQQFHRHKQLIRFLKRLDRNLWGLAGLNSCPVKEANCSTLENFLERLKTIMDEKDSKCSS
modifications: linear 22 kD methoxy-polyethylene glycol-maleimide on Cys 106 (numbered according to wild type IL-4)
notes: also called PEG-IL4RE

Fold increase in IC50 (relative to IL-4DM), primary B cells [4]: 7.6 fold
IC50 (nM), primary B cell proliferation to anti-CD40 and IL-4 [4]: 13 nM
Fold increase in IC50 (relative to IL-4DM), primary T cell blasts [5]: 4.6 fold
IC50 (nM), primary T cell blast proliferation to IL-4 [5]: 4.93 nM
B9: IL-4TM-A104C (R121D/Y124D/A104C) PEGylated with 30 kDa linear maleimide-PEG (ligand)
chain: MHKCDITLQEIIKTLNSLTEQKTLCTELTVTDIFAASKNTTEKETFCRAATVLRQFYSHHEKDTRCLGATAQQFHRHKQLIRFLKRLDRNLWGLAGLNSCPVKECNQSTLENFLERLKTIMDEKDSKCSS
modifications: 30 kDa linear maleimide-PEG on Cys 104 (numbered according to wild type IL-4)

Fold increase in IC50 (relative to IL-4DM), primary B cells [4]: 0.3 fold
IC50 (nM), primary B cell proliferation to anti-CD40 and IL-4 [4]: 0.5 nM
Fold increase in IC50 (relative to IL-4DM), primary T cell blasts [5]: 0.67 fold
IC50 (nM), primary T cell blast proliferation to IL-4 [5]: 0.714 nM
B13: IL4-RE-T13D (T13D/R121D/Y124D), unPEGylated (ligand)
chain: MHKCDITLQEIIKDLNSLTEQKTLCTELTVTDIFAASKNTTEKETFCRAATVLRQFYSHHEKDTRCLGATAQQFHRHKQLIRFLKRLDRNLWGLAGLNSCPVKEANQSTLENFLERLKTIMDEKDSKCSS

From patent publication US20090010874A1 (published 2009)
